From US12134789B2, “Construction method and applications of glycosyltransferase BS-YjiC mutant” (Northwest university, priority 2023, dated 2024)
Where “and” joins values, the source holds several entries; their conditions need not be identical. Equal values may be shown once.

Tests used:
[1] = Initial enzyme activity of pure enzyme solutions; format: biochemical; details: 35° C., pH 8.0, 1 mM PPD, 5 mM UDPG
Description: (§1) The detection methods involved in the following embodiments are as follows. • 1. Determination method of enzyme activity of glycosyltransferase BS-YjiC: 50 microliters (μL) of pure enzyme with a concentration of 1.5 milligrams per milliliter (mg/mL) is added to 950 μL of a reaction system containing 50 millimoles per liter (mM) Tris hydrochloride (Tris-HCl) (pH 8.0) buffer of 1 mM protopanaxadiol (PPD), 5 mM uridine diphosphate glucose (UDPG) and 8 mM magnesium chloride (MgCl2); reacted in a water bath at 35° C. for 30 minutes (min), then added the same volume of methanol to terminate the enzymatic reaction, so as to obtain a reacted product. The reacted product is centrifuged, then the supernatant is taken and filtered with a 0.22 micrometers (μm) filter to obtain a reaction solution, and the residual amount of PPD in the reaction solution is detected by high-performance liquid chromatography (HPLC). • 2. Definition of enzyme activity: the amount of enzyme required to convert 1 micromole (μmol) of ginsenoside PPD per minute at 35° C. and pH 8.0 is defined as one unit of enzyme activity U.
The pure enzyme solutions containing the wild-type glycosyltransferase BS-YjiC, K125I, N178I, P313W, K125I/N178I, and K125I/P313W prepared above are detected respectively, and the results are shown in Table 2.

[2] = Melting temperature Tm of the enzyme; format: physicochemical
[3] = Thermal stability: residual enzyme activity after incubation at 45° C.; format: biochemical; details: pure enzyme incubated in water bath at 45° C. for 90 min; enzyme without high-temperature treatment as blank control
Description: as §1
After the prepared pure enzymes are incubated in a water bath at 45° C. for 90 min, 1 mL is taken, and the residual enzyme activity of the remaining enzymes is determined according to the enzyme activity determination method of the glycosyltransferase BS-YjiC, and the percentage of residual enzyme activity is obtained by taking the enzyme activity of the pure enzyme solution without high-temperature treatment as a blank control.
The pure enzyme solutions containing wild-type glycosyltransferase BS-YjiC, K125I, N178I, P313W, K125I/N178I and K125I/P313W prepared in the step 2 of the embodiment 6 are taken, respectively, then put in a constant temperature water bath at 45° C., and sampled every 30 min. The residual enzyme activity of glycosyltransferase BS-YjiC is measured according to the enzyme activity determination method, and its thermal stability is compared.

[4] = Kinetic parameters with PPD as substrate (HPLC); format: biochemical; details: 50-1000 μM PPD, 10 mM UDPG, 8 mM MgCl2, pH 8.0, 35° C., 30 min
Description: 0.22 μg of pure enzyme is added into 50 mM […] (pH 8.0) buffer containing 10 mM UDPG and 8 mM MgCl2, added 50, 100, 200, 300, 400, 500, 600, 800 and 1000 μM PPD respectively, reacted at 35° C. in water bath for 30 min, and then then an equal volume of methanol is added to terminate the enzymatic reaction. The reacted products are centrifuged, then the supernatants are taken and filtered by a 0.22 μm filter to obtain reaction solutions, and the remaining amount of PPD in the reaction solutions is detected by HPLC.

| Molecule | Initial enzyme activity (%) [1] | melting temperature Tm [2] | Residual enzyme activity (%) [3] | Kcat [4] | Km [4] | Vmax [4] | increase of melting temperature Tm over natural glycosyltransferase BS-YjiC [2] |
| --- | --- | --- | --- | --- | --- | --- | --- |
| WT: wild-type glycosyltransferase BS-YjiC from Bacillus subtilis 168, amino acid sequence SEQ ID NO: 1 (protein) MKKYHISMINIPAYGHVNPTLALVEKLCEKGHRVTYATTEEFAPAVQQAGGEALIYHTSLNIDPKQIREMMEKNDAPLSLLKESLSILPQLEELYKDDQPDLIIYDFVALAGKLFAEKLNVPVIKLCSSYAQNESFQLGNEDMLKKIREAEAEFKAYLEQEKLPAVSFEQLAVPEALNIVFMPKSFQIQHETFDDRFCFVGPSLGERKEKESLLIDKDDRPLMLISLGTAFNAWPEFYKMCIKAFRDSSWQVIMSVGKTIDPESLEDIPANFTIRQSVPQLEVLEKADLFISHGGMNSTMEAMNAGVPLVVIPQMYEQELTANRVDELGLGVYLPKEEVTVSSLQEAVQAVSSDQELLSRVKNMQKDVKEAGGAERAAAEIEAFMKKSAVPQ | 100% | 47.30 °C | 84.6% | 0.96 ± 0.06 s⁻¹ | 132 ± 32.1 µM | 8.32 ± 0.36 U g^−1 |  |
| N178I: BS-YjiC (SEQ ID NO: 1) mutant with asparagine at the 178th position mutated into isoleucine (protein) MKKYHISMINIPAYGHVNPTLALVEKLCEKGHRVTYATTEEFAPAVQQAGGEALIYHTSLNIDPKQIREMMEKNDAPLSLLKESLSILPQLEELYKDDQPDLIIYDFVALAGKLFAEKLNVPVIKLCSSYAQNESFQLGNEDMLKKIREAEAEFKAYLEQEKLPAVSFEQLAVPEALIIVFMPKSFQIQHETFDDRFCFVGPSLGERKEKESLLIDKDDRPLMLISLGTAFNAWPEFYKMCIKAFRDSSWQVIMSVGKTIDPESLEDIPANFTIRQSVPQLEVLEKADLFISHGGMNSTMEAMNAGVPLVVIPQMYEQELTANRVDELGLGVYLPKEEVTVSSLQEAVQAVSSDQELLSRVKNMQKDVKEAGGAERAAAEIEAFMKKSAVPQ | 98.76% |  | 87.42% | 1.01 ± 0.07 s⁻¹ | 132 ± 33.8 µM | 8.75 ± 0.62 U g^−1 |  |
| P313W: BS-YjiC (SEQ ID NO: 1) mutant with proline at the 313th position mutated into tryptophan (protein) MKKYHISMINIPAYGHVNPTLALVEKLCEKGHRVTYATTEEFAPAVQQAGGEALIYHTSLNIDPKQIREMMEKNDAPLSLLKESLSILPQLEELYKDDQPDLIIYDFVALAGKLFAEKLNVPVIKLCSSYAQNESFQLGNEDMLKKIREAEAEFKAYLEQEKLPAVSFEQLAVPEALNIVFMPKSFQIQHETFDDRFCFVGPSLGERKEKESLLIDKDDRPLMLISLGTAFNAWPEFYKMCIKAFRDSSWQVIMSVGKTIDPESLEDIPANFTIRQSVPQLEVLEKADLFISHGGMNSTMEAMNAGVPLVVIWQMYEQELTANRVDELGLGVYLPKEEVTVSSLQEAVQAVSSDQELLSRVKNMQKDVKEAGGAERAAAEIEAFMKKSAVPQ | 96.53% |  | 89.48% | 1.11 ± 0.08 s⁻¹ | 136 ± 32 µM | 8.94 ± 0.60 U g^−1 |  |
| K125I/N178I: BS-YjiC (SEQ ID NO: 1) double mutant: lysine into isoleucine (K125I) and asparagine 178 into isoleucine (protein) MKKYHISMINIPAYGHVNPTLALVEKLCEKGHRVTYATTEEFAPAVQQAGGEALIYHTSLNIDPKQIREMMEKNDAPLSLLKESLSILPQLEELYKDDQPDLIIYDFVALAGKLFAEKLNVPVIILCSSYAQNESFQLGNEDMLKKIREAEAEFKAYLEQEKLPAVSFEQLAVPEALIIVFMPKSFQIQHETFDDRFCFVGPSLGERKEKESLLIDKDDRPLMLISLGTAFNAWPEFYKMCIKAFRDSSWQVIMSVGKTIDPESLEDIPANFTIRQSVPQLEVLEKADLFISHGGMNSTMEAMNAGVPLVVIPQMYEQELTANRVDELGLGVYLPKEEVTVSSLQEAVQAVSSDQELLSRVKNMQKDVKEAGGAERAAAEIEAFMKKSAVPQ | 106.47% | 54.51 °C | 98.3% and 98.25% | 1.01 ± 0.05 s⁻¹ | 117 ± 22.5 µM | 8.82 ± 0.45 U g^−1 | 7.21 °C |
| K125I/P313W: BS-YjiC (SEQ ID NO: 1) double mutant: lysine into isoleucine (K125I) and proline 313 into tryptophan (protein) MKKYHISMINIPAYGHVNPTLALVEKLCEKGHRVTYATTEEFAPAVQQAGGEALIYHTSLNIDPKQIREMMEKNDAPLSLLKESLSILPQLEELYKDDQPDLIIYDFVALAGKLFAEKLNVPVIILCSSYAQNESFQLGNEDMLKKIREAEAEFKAYLEQEKLPAVSFEQLAVPEALNIVFMPKSFQIQHETFDDRFCFVGPSLGERKEKESLLIDKDDRPLMLISLGTAFNAWPEFYKMCIKAFRDSSWQVIMSVGKTIDPESLEDIPANFTIRQSVPQLEVLEKADLFISHGGMNSTMEAMNAGVPLVVIWQMYEQELTANRVDELGLGVYLPKEEVTVSSLQEAVQAVSSDQELLSRVKNMQKDVKEAGGAERAAAEIEAFMKKSAVPQ | 105.13% | 53.07 °C | 95.1% and 95.43% | 0.98 ± 0.05 s⁻¹ | 121 ± 23.1 µM | 8.56 ± 0.44 U g^−1 | 5.77 °C |
| K125I: BS-YjiC (SEQ ID NO: 1) mutant with lysine mutated into isoleucine (K125I) (protein) MKKYHISMINIPAYGHVNPTLALVEKLCEKGHRVTYATTEEFAPAVQQAGGEALIYHTSLNIDPKQIREMMEKNDAPLSLLKESLSILPQLEELYKDDQPDLIIYDFVALAGKLFAEKLNVPVIILCSSYAQNESFQLGNEDMLKKIREAEAEFKAYLEQEKLPAVSFEQLAVPEALNIVFMPKSFQIQHETFDDRFCFVGPSLGERKEKESLLIDKDDRPLMLISLGTAFNAWPEFYKMCIKAFRDSSWQVIMSVGKTIDPESLEDIPANFTIRQSVPQLEVLEKADLFISHGGMNSTMEAMNAGVPLVVIPQMYEQELTANRVDELGLGVYLPKEEVTVSSLQEAVQAVSSDQELLSRVKNMQKDVKEAGGAERAAAEIEAFMKKSAVPQ | 103.15% |  | 91.05% | 0.99 ± 0.05 s⁻¹ | 128 ± 22.4 µM | 8.60 ± 0.41 U g^−1 |  |
